Article PMC13157019 (eBioMedicine, 2026)

T1: rabbit Langerin ectodomain (recombinant) (rabbit)
T1 chain: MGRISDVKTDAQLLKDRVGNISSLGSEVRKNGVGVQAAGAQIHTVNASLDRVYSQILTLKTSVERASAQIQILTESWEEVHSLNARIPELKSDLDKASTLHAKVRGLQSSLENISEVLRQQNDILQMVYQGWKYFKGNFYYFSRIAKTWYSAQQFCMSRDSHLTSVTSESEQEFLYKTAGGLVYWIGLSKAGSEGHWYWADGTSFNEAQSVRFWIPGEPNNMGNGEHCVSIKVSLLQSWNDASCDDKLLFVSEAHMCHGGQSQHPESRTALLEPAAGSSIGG


Key:
Test in all cases: SPR
[1] = target: T1, rabbit Langerin ectodomain (recombinant)
[2] = target: mouse Langerin ectodomain (recombinant) (Mus musculus, UniProt Q8VBX4)
[3] = target: human Langerin ectodomain (recombinant) (Homo sapiens, UniProt Q9UJ71)
Sequence of human Langerin ectodomain (recombinant) (Q9UJ71 65-328): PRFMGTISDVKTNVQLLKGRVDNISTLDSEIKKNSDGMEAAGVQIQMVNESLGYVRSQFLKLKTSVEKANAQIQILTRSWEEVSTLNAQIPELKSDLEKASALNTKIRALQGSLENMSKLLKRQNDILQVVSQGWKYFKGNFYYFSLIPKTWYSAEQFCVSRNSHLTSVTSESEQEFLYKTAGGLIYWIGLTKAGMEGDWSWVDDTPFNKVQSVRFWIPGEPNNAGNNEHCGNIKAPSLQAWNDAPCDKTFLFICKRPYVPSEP

Sequence of mouse Langerin ectodomain (recombinant) (Q8VBX4 63-331): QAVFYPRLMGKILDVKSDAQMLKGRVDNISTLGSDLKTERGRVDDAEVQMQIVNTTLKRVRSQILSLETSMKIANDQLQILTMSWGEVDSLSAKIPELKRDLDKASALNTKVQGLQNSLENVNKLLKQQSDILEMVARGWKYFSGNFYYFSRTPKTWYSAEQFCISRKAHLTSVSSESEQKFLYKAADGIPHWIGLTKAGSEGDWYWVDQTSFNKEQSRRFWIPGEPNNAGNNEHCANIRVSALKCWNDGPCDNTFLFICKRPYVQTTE

Binder	Kd [1] [nM]	Kd [2] [nM]	Kd [3] [nM]
LC^3.Env^3 (fibritin-stabilised HIV-1 Env gp140z trimer fused to three scFv of the anti-Langerin 4C7 mAb) (scFv, V domains shown) VH: QVQLQQSGAELVRPGASVTLSCKASGYTFIDHDMHWVQQTPVYGLEWIGAIDPETGDTGYNQKFKGKAILTADKSSRTAYMELRSLTSEDSAVYYCTIPFYYSNYSPFAYWGQGTLVTVSA VL: QIVLSQSPAILSASPGEKVTMTCRASSSVSYMHWYQRKPGSSPKPWIYATSNLASGVPARFSGSGSGTSYSLTISRVEAEDAATYYCQQWSSNPLTFGAGTKLELK	~3.5	~3.5	~3.5
LC.Env (anti-Langerin 4C7 mAb fused to HIV-1 envelope gp140z from clade C 96ZM651) (antibody, V domains shown) VH: QVQLQQSGAELVRPGASVTLSCKASGYTFIDHDMHWVQQTPVYGLEWIGAIDPETGDTGYNQKFKGKAILTADKSSRTAYMELRSLTSEDSAVYYCTIPFYYSNYSPFAYWGQGTLVTVSA VL: QIVLSQSPAILSASPGEKVTMTCRASSSVSYMHWYQRKPGSSPKPWIYATSNLASGVPARFSGSGSGTSYSLTISRVEAEDAATYYCQQWSSNPLTFGAGTKLELK	~0.7	~0.7	~0.7
